Laboratory results from US20120165204A1.

Experiments:
[1] = molecular target: CRIB domain of PAK1 (residues 65-150, extended CRIB domain) with C-terminal 6x Histidine tag (UniProt Q13153); assay: ITC at 25 °C, experiment 1, stoichiometry of one-site model
[2] = molecular target: CRIB domain of PAK1 (residues 65-150, extended CRIB domain) with C-terminal 6x Histidine tag (UniProt Q13153); assay: ITC at 25 °C, experiment 2; parameters: unit not given here
[3] = molecular target: CRIB domain of PAK1 (residues 65-150, extended CRIB domain) with C-terminal 6x Histidine tag (UniProt Q13153); assay: ITC at 25 °C, experiment 1; parameters: unit not given here
[4] = molecular target: CRIB domain of PAK1 (residues 65-150, extended CRIB domain) with C-terminal 6x Histidine tag (UniProt Q13153); assay: ITC
[5] = molecular target: CRIB domain of PAK1 (residues 65-150, extended CRIB domain) with C-terminal 6x Histidine tag (UniProt Q13153); assay: ITC at 25 °C, experiment 2, stoichiometry of one-site model
[6] = molecular target: CRIB domain of PAK1 (residues 65-150, extended CRIB domain) with C-terminal 6x Histidine tag (UniProt Q13153); assay: ITC at 25 °C, PA-Rac1 mutant injected into PAK1 CRIB (10 µM), experiment 2; column head prints 'mM', paragraph 152 gives µM
[7] = molecular target: CRIB domain of PAK1 (residues 65-150, extended CRIB domain) with C-terminal 6x Histidine tag (UniProt Q13153); assay: ITC at 25 °C, PA-Rac1 mutant injected into PAK1 CRIB (10 µM), experiment 1; column head prints 'mM', paragraph 152 and the legend of FIG. 3 give µM
[8] = molecular target: CRIB domain of PAK1 (residues 65-150, extended CRIB domain) with C-terminal 6x Histidine tag (UniProt Q13153); assay: ITC at 25 °C, PA-Rac1 mutant injected into PAK1 CRIB (10 µM), experiment 1; column head prints 'mM', paragraph 152 and the legend of FIG. 3 give µM / nM
[9] = molecular target: CRIB domain of PAK1 (residues 65-150, extended CRIB domain) with C-terminal 6x Histidine tag (UniProt Q13153); assay: ITC at 25 °C, PA-Rac1 mutant injected into PAK1 CRIB (10 µM), experiment 2; column head prints 'mM', paragraph 152 gives 220-280 nM

Row | N [1] | ΔH [2] | ΔS [2] | ΔH [3] | ΔS [3] | fold weaker affinity than the lit state mimetic I539E [4] | N [5] | Kd [6] | Kd [7] | Kd [8] | Kd [9] | Substance
1 | 1 | -5600 | 6.6 | -7000 | 2.6 | 10 fold | 0.64 | 3100 nM | 2300 nM | – | – | PA-Rac1 C450A (dark state mutant) with N-terminal six Histidine tag (from UniProt P63000 4-192)
2 | 0.95 | -18000 | -31 | – | -30 | – | 0.95 | – | – | 220 nM | 280 nM | PA-Rac1 I539E (lit state mutant) with N-terminal six Histidine tag (from UniProt P63000 4-192)
